We go through one substance from US8247195.

The series concerns the target H-NS (Salmonella enterica serovar Typhimurium 14028s) (UniProt A0A0F6B244). The following applies: ChIP/Q-PCR, formaldehyde crosslinked, anti-HA; value given as example of copies recovered per marA copy.
UniProt A0A0F6B244, sequence (A0A0F6B244 whole entry): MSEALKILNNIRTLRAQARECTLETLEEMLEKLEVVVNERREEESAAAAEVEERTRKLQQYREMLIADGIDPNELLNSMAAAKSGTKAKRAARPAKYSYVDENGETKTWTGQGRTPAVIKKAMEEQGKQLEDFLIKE

proV returned a binding signal (fold enrichment vs marA) of 53.6.
